{"source": "patent US20030203373A1", "about": "(priority 2002, published 2003)", "target": "T1, angiotensin-converting-enzyme derived from pig kidney (pig) (UniProt F1RRW5)", "T1 sequence (looked up)": "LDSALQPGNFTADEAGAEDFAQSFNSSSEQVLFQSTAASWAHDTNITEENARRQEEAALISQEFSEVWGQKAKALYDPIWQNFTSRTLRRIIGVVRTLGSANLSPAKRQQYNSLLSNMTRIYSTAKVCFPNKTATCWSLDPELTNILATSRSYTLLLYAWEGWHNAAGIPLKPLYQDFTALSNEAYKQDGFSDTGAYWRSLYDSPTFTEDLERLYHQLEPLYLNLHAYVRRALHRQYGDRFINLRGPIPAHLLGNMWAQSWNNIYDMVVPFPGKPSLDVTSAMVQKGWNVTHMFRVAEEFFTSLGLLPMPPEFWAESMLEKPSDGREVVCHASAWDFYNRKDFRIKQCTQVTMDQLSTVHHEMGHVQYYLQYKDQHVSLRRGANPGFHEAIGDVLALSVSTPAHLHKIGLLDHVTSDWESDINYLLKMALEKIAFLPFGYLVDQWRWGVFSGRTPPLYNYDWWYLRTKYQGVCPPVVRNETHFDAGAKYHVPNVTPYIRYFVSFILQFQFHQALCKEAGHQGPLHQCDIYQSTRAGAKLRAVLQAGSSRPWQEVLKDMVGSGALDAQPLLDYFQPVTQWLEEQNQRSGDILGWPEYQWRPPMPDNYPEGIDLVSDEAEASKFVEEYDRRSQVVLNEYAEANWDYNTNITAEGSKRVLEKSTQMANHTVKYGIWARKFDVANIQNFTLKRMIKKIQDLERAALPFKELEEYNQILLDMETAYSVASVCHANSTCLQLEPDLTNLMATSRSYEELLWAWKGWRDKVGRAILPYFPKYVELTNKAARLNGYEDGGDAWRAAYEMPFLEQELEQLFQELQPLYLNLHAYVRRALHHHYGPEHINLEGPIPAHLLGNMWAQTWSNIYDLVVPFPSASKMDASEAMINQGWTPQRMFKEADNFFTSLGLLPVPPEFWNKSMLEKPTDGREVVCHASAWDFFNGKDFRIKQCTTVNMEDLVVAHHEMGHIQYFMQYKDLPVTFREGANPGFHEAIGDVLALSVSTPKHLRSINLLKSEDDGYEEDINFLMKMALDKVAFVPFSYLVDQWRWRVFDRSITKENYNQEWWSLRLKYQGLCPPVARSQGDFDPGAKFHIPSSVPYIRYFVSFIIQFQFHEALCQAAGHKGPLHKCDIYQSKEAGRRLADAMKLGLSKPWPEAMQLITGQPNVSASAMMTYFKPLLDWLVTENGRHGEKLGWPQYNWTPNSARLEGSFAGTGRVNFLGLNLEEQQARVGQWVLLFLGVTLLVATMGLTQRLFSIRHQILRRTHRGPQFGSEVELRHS", "test": "cell-based or functional assay", "data": [{"substance": "BPP9a from Bothrops jararaca (peptide)", "values": [{"measurement": "% inhibition, inhibitor 0.0097 µM, row A", "result": 18, "unit": "%"}, {"measurement": "% inhibition, inhibitor 0.0097 µM, row B", "result": 17.3, "unit": "%"}, {"measurement": "% inhibition, inhibitor 0.0097 µM, row C", "result": 14.8, "unit": "%"}, {"measurement": "% inhibition, inhibitor 0.0097 µM, row D", "result": 7.86, "unit": "%"}, {"measurement": "% inhibition, inhibitor 0.0195 µM, row C", "result": 23, "unit": "%"}, {"measurement": "% inhibition, inhibitor 0.078 µM, row B", "result": 43.5, "unit": "%"}, {"measurement": "% inhibition, inhibitor 0.15625 µM, row B", "result": 63.3, "unit": "%"}, {"measurement": "% inhibition, inhibitor 0.3125 µM, row A", "result": 84, "unit": "%"}, {"measurement": "% inhibition, inhibitor 0.3125 µM, row B", "result": 83.8, "unit": "%"}, {"measurement": "% inhibition, inhibitor 0.625 µM, row A", "result": 94, "unit": "%"}, {"measurement": "% inhibition, inhibitor 0.625 µM, row B", "result": 93.5, "unit": "%"}, {"measurement": "% inhibition, inhibitor 1.25 µM, row B", "result": 97.3, "unit": "%"}, {"measurement": "IC50, ACE inhibition", "result": 97, "unit": "nM"}, {"measurement": "IC50-value, ACE inhibition (hippuryl-histidyl-leucin substrate)", "result": 97, "unit": "nM"}, {"measurement": "fluorescence, inhibitor 0.0097 µM, row A", "result": 704000}, {"measurement": "fluorescence, inhibitor 0.0097 µM, row B", "result": 710000}, {"measurement": "fluorescence, inhibitor 0.0097 µM, row C", "result": 732000}, {"measurement": "fluorescence, inhibitor 0.0097 µM, row D", "result": 791000}, {"measurement": "fluorescence, inhibitor 0.0195 µM, row A", "result": 650000}, {"measurement": "fluorescence, inhibitor 0.0195 µM, row B", "result": 652000}, {"measurement": "fluorescence, inhibitor 0.0195 µM, row C", "result": 662000}, {"measurement": "fluorescence, inhibitor 0.0195 µM, row D", "result": 697000}, {"measurement": "fluorescence, inhibitor 0.039 µM, row A", "result": 629000}, {"measurement": "fluorescence, inhibitor 0.039 µM, row B", "result": 556000}, {"measurement": "fluorescence, inhibitor 0.039 µM, row C", "result": 592000}, {"measurement": "fluorescence, inhibitor 0.039 µM, row D", "result": 454000}, {"measurement": "fluorescence, inhibitor 0.078 µM, row A", "result": 446000}, {"measurement": "fluorescence, inhibitor 0.078 µM, row B", "result": 487000}, {"measurement": "fluorescence, inhibitor 0.078 µM, row C", "result": 445000}, {"measurement": "fluorescence, inhibitor 0.078 µM, row D", "result": 462000}, {"measurement": "fluorescence, inhibitor 0.15625 µM, row A", "result": 309000}, {"measurement": "fluorescence, inhibitor 0.15625 µM, row B", "result": 318000}, {"measurement": "fluorescence, inhibitor 0.15625 µM, row C", "result": 311000}, {"measurement": "fluorescence, inhibitor 0.15625 µM, row D", "result": 262000}, {"measurement": "fluorescence, inhibitor 0.3125 µM, row A", "result": 142000}, {"measurement": "fluorescence, inhibitor 0.3125 µM, row B", "result": 144000}, {"measurement": "fluorescence, inhibitor 0.3125 µM, row C", "result": 148000}, {"measurement": "fluorescence, inhibitor 0.3125 µM, row D", "result": 149000}, {"measurement": "fluorescence, inhibitor 0.625 µM, row A", "result": 55600}, {"measurement": "fluorescence, inhibitor 0.625 µM, row B", "result": 60300}, {"measurement": "fluorescence, inhibitor 0.625 µM, row C", "result": 60900}, {"measurement": "fluorescence, inhibitor 0.625 µM, row D", "result": 57500}, {"measurement": "fluorescence, inhibitor 1.25 µM, row A", "result": 25800}, {"measurement": "fluorescence, inhibitor 1.25 µM, row B", "result": 27500}, {"measurement": "fluorescence, inhibitor 1.25 µM, row C", "result": 27000}, {"measurement": "fluorescence, inhibitor 1.25 µM, row D", "result": 27200}, {"measurement": "fluorescence, inhibitor 2.5 µM, row A", "result": 14000}, {"measurement": "fluorescence, inhibitor 2.5 µM, row B", "result": 13900}, {"measurement": "fluorescence, inhibitor 2.5 µM, row C", "result": 14100}, {"measurement": "fluorescence, inhibitor 2.5 µM, row D", "result": 15100}, {"measurement": "fluorescence, inhibitor 5 µM, row A", "result": 10600}, {"measurement": "fluorescence, inhibitor 5 µM, row B", "result": 9630}, {"measurement": "fluorescence, inhibitor 5 µM, row C", "result": 9630}, {"measurement": "fluorescence, inhibitor 5 µM, row D", "result": 9660}]}]}
